Data: the supplement of paper PMC10567573
± gives the standard deviation.

Assay: protein stability index of a GFP-peptide fusion (GPS, HEK-293T) (PSI 1-6); higher = more stable
Settings: c terminus: a fixed tail appended
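Also: 24-mer peptide tiles fused after GFP, lentivirally expressed, FACS-sorted into six equal bins by GFP/DsRed ratio, decoded by Illumina sequencing, PSI is the read-weighted mean bin number.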

Sequence	protein stability index (treatment: DMSO)	protein stability index (treatment: MLN4924 1 uM, 8 h)
AAIVVNGHGMTPLKVAAESCKADV [FEM1B]	3.38 ± 0.39	3.3 ± 0.35
TLWKHQFAWPFYQPVDAIKLNLPD [BRD3]	2.46 ± 0.63	2.3 ± 0.13
LGIGMDSCVIPLRHGGLSLVQTTD [SEPHS2]	2.8 ± 0.33	2.98 ± 0.4
ERHTMDLTVEGFQSWMWRGLTFLL [TMEM120A]	2.11 ± 0.41	2.28 ± 0.092
SLVHMDIKPSNIFISRTSIPNAAS [WEE1]	2.43 ± 0.24	2.48 ± 0.21
REQILRVKDTDDVPMILVGNKCDL [RAP1B]	3.95 ± 0.28	3.98 ± 0.14
SHQYDRIYCGAGVQKDHENYMKIL [PCMTD1]	2.38 ± 0.16	2.39 ± 0.2
LREERKKAKKNKDKYVGVSSDSVG [CLINT1]	4.95 ± 0.17	5.09 ± 0.15
FGIKCAKCQVGFSSSDLVMRARDS [ISL2]	2.37 ± 0.32	2.54 ± 0.58
LGLGSMIGTMAGITTPIIDTFKVP [SLC6A17]	2.55 ± 0.12	2.51 ± 0.31
YEPLLSRVQAALVWERPARSALWC [RETREG3]	2.39 ± 0.53	2.12 ± 0.22
RFYRSPEVLLGTPYDLAIDMWSLG [DYRK1B]	1.78 ± 0.42	2.29 ± 0.35
ETENIIAANHWVLPAAEFHGLWDS [TRIP13]	3.28 ± 0.29	3.36 ± 0.26
MDYDSYQHYFYDYDCGEDFYRSTA [MYCL]	2.75 ± 0.35	2.51 ± 0.26
VTQNSTAEPSRFSSSDSDFDDEEP [FCHO1]	5.52 ± 0.25	5.55 ± 0.14
KAQLPRRESERRNHSLARHADILA [FBXO28]	3.85 ± 0.11	3.96 ± 0.14
KKDKCGRTPLHYAAANCHFHCIET [ANKRD44]	2.5 ± 0.096	2.63 ± 0.29
ANWQPKVAPATWSAGVPPSAPLQG [SNAP91]	4 ± 0.098	3.85 ± 0.25
SEGSSSSSSSSSSSSSSASSSASS [NFE2L1]	5.57 ± 0.16	5.53 ± 0.2
LLTNNSGTPKDHDSPENGADSFES [ETS2]	5.2 ± 0.26	5.22 ± 0.12
LFGFSAVSIMYLVLVLAVQVHAWQ [JAGN1]	3.8 ± 0.15	2.97 ± 0.39
SQDALRVVSTSGEQMKVYKCEHCR [IKZF1]	4.29 ± 0.33	4.38 ± 0.3
AYVSPEILNTTGTYSGKAADVWSL [TRIB1]	2.51 ± 0.3	2.37 ± 0.52

Sequence	protein stability index (treatment: DMSO)	protein stability index (treatment: MLN4924 1 uM, 8 h)
IFHSRTSLQKLSTKLSAQSAQYSQ [FCHSD1]	2.91 ± 0.17	2.98 ± 0.34
SKNDNGKPDSVGLPPCAVRNLQDL [PCMTD1]	4.85 ± 0.44	4.58 ± 0.35
RHIFMGYLESETETTEAIDDEGWL [ACSBG2]	4.08 ± 0.27	4.13 ± 0.16
VLIVDWDVHHGQGTQFTFDQDPSV [HDAC6]	2.32 ± 0.42	2.13 ± 0.049
LTQRQVNITVQKKVSQWWERLTKQ [HACD3]	2.55 ± 0.33	2.81 ± 0.24
RHDSETEDMLWDDLLHGPECRSSV [PHTF1]	4.68 ± 0.24	4.7 ± 0.2
RLNIKKDDEFFHFVLLCFAIGALL [TMEM40]	2.73 ± 0.8	2.19 ± 0.54
RRKACQACRFTKCLRVGMLKEGVR [ESRRA]	2.23 ± 0.25	2.3 ± 0.51
LSTFSVPYFLFQHWATGYSKSSHP [SOAT1]	2.11 ± 0.4	2.56 ± 0.79
SPQEDGQIMFDVEMHTSRDHSSQS [BNIP3L]	5.21 ± 0.2	5.21 ± 0.13
GSLGSRAEPAPRAREGGGCGRSEV [SMAD6]	4.84 ± 0.15	4.92 ± 0.11
PSEDIWKKFELVPSPPTSPPWGLG [MYCL]	3.04 ± 0.36	2.9 ± 0.37
YQKILAGKIDFPRHLDFHVKDLIK [PRKX]	2.19 ± 0.97	2.1 ± 0.4
KSNVLKLKTADWRVFLFQAPSKEE [PSD2]	2.33 ± 0.077	2.44 ± 0.28
TVQSRPRIDGKLDSPSRSPSKVEV [C2CD2L]	4.78 ± 0.21	4.65 ± 0.37
PGTGKTSLCKALAQKLTIRLSSRY [TRIP13]	2.92 ± 0.64	2.63 ± 0.65
EPSELDNPFQDPAVIQHRPSRQYA [SCAMP3]	4.67 ± 0.22	4.77 ± 0.13
TPYVRWNYVAKNFAQALGCVLYAC [SOAT2]	2.7 ± 0.84	2.41 ± 0.34
AQTELLCCLVKMESLEPDAQVLML [FANCE]	2.61 ± 0.68	2.34 ± 0.16
DSMYGECRTYIIHYYLMDDTVEIR [EFHC1]	2.35 ± 0.6	2.6 ± 0.69
VRLLLEFKAEVDPLSDKGTTPLQL [ASB7]	2.16 ± 0.48	2.31 ± 0.4
MGTEPAPSAPEALHSLPGVSLSLE [TBX6]	4.28 ± 0.22	4.41 ± 0.24
